Paper PMC3539437, “Solution Structures of PPARγ2/RXRα Complexes” (PPAR Research, 2012)

What was measured:
[1] = molecular target: T1, HsPPARγ LBD (203–477) (human, UniProt P37231-2 203-477); experiment: co-purification (affinity chromatography, gel filtration); heterodimer partners coexpressed (E. coli BL21 (DE3) or Sf9) and copurified in two steps; conditions: partners not purified
T1 construct: Rosiglitazone was added in a 2-fold excess; also called PPAR LBD
T1 sequence (looked up): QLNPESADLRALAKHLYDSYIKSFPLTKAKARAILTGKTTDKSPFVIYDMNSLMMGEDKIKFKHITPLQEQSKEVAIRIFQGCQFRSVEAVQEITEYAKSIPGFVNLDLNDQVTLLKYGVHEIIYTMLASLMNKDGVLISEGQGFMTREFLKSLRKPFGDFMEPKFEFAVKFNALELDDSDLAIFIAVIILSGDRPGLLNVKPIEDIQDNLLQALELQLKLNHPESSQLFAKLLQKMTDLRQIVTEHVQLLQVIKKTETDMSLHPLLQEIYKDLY

[2] = molecular target: T2, Full-length PPARγ2/RXRα heterodimer (human, UniProt P37231 1-505; P19793 1-462); experiment: SAXS; complexes bound to Cyp4A1 PPRE DNA; Tris 20 mM pH 7.5, NaCl 75 mM, KCl 75 mM, MgSO4 4 mM, Glycerol 5%, Chaps 2 mM; ligands CD3254 and rosiglitazone; conditions: both partners purified
T2 construct: PPARγ2, human, residues 1-505; Retinoid X receptor alpha, human, residues 1-462; also called integral PPARγ/RXRα; full-length heterodimer
T2 sequence (looked up) 1: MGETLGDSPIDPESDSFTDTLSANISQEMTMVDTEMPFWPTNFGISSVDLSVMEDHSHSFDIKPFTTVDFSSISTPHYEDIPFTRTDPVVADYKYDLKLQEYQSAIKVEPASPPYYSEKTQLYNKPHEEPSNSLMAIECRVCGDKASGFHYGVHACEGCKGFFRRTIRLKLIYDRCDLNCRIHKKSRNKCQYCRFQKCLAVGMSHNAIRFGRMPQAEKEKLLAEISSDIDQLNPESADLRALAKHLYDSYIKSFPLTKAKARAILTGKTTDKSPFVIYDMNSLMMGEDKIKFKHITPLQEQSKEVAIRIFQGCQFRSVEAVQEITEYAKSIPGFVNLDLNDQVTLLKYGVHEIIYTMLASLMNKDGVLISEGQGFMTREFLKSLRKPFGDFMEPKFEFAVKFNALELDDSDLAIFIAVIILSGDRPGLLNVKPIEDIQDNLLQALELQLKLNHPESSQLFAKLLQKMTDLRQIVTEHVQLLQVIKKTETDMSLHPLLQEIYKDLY
T2 sequence (looked up) 2: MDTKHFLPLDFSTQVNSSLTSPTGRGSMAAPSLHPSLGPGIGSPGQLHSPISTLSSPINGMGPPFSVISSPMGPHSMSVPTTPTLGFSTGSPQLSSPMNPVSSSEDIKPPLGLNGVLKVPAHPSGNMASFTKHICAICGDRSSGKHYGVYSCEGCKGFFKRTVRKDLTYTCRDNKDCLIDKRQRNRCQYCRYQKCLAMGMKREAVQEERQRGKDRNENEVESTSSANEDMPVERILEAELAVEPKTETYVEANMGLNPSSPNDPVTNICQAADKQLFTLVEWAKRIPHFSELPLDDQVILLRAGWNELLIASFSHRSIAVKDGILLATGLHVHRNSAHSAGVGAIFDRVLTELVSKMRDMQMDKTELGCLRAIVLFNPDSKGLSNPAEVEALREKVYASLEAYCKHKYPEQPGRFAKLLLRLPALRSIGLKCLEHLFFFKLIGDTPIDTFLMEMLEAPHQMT

[3] = molecular target: T3, PPARγ/RXRα LBDs heterodimer (human, UniProt P37231-2 203-477; P19793 223-462); experiment: native MS; ESI-MS under nondenaturing conditions, 200 mM ammonium acetate (pH 8.0 in the methods, pH 7.4 in the legend), capillary exit 80 V; conditions: both partners purified
T3 construct: nontagged; Ligands (CD3254 for RXR and rosiglitazone for PPAR) were added in a 2-fold excess; also called PPAR/RXR LBDs; LBD dimer
T3 sequence (looked up) 1: T1 sequence (looked up)
T3 sequence (looked up) 2: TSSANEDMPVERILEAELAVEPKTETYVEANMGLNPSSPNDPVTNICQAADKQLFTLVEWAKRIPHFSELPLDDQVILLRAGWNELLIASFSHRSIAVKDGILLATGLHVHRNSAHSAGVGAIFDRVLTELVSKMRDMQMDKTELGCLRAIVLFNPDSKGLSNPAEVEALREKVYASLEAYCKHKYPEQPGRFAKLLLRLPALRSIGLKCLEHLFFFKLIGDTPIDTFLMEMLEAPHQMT

[4] = molecular target: T4, PPARγΔNTD/RXRαΔNTD heterodimer (human, UniProt P37231 135-505; P19793 130-462); experiment: AUC; sedimentation equilibrium at 12,000 rpm, fitted with Sedphat; TIF2 RID with PPARγΔNTD/RXRαΔNTD/DNA; conditions: both partners purified
T4 construct: PPARγ2 without its N-terminal domain, human, residues 135-505; Retinoid X receptor alpha without its N-terminal domain, human, residues 130-462; nontagged; also called PPARγ2ΔNTD/RXRαΔNTD; PPARγΔNTD/RXRΔNTD
T4 sequence (looked up) 1: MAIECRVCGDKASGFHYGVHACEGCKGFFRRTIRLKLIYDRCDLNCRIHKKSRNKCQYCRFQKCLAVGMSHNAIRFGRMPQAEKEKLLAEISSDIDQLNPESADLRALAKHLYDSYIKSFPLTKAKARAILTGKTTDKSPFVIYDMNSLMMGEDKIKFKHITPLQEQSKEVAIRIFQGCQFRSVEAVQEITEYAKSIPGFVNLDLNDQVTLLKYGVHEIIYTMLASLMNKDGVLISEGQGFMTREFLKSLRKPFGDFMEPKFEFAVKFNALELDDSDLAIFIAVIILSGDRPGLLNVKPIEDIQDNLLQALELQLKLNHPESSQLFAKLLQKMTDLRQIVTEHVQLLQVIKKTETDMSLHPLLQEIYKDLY
T4 sequence (looked up) 2: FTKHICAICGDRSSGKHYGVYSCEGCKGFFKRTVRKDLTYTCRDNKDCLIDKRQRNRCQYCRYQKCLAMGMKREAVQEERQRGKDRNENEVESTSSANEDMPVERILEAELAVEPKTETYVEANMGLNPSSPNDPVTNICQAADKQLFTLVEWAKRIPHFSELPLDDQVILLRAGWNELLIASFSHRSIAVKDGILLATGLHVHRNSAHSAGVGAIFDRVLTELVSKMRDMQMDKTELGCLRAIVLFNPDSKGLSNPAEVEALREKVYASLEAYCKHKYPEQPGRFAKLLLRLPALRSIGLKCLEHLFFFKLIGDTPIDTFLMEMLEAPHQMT

[5] = molecular target: T5, Full-length HsPPARγ2 (1–505) (human, UniProt P37231-1 1-505); experiment: SAXS; complexes bound to Cyp4A1 PPRE DNA; Tris 20 mM pH 7.5, NaCl 75 mM, KCl 75 mM, MgSO4 4 mM, Glycerol 5%, Chaps 2 mM; ligands CD3254 and rosiglitazone; conditions: both partners purified
T5 construct: PPARγ2, human, residues 1-505; Rosiglitazone was added in a 2-fold excess; also called PPARg2; full length PPARγ
T5 sequence (looked up): T2 sequence (looked up) 1

[6] = molecular target: T6, HsPPARγΔNTD (135–505) (human, UniProt P37231 135-505); experiment: co-purification (affinity chromatography, gel filtration); heterodimer partners coexpressed (E. coli BL21 (DE3) or Sf9) and copurified in two steps; conditions: partners not purified
T6 construct: PPARγ2 without its N-terminal domain, human, residues 135-505 (PPARγ2 has 505 residues); Rosiglitazone was added in a 2-fold excess; also called PPARγ2ΔNTD
T6 sequence (looked up): T4 sequence (looked up) 1

B1: HsRXRα LBD (223–462) (domain or fragment, human, UniProt P19793 223-462, looked up)
chain: T3 sequence (looked up) 2
notes: nontagged (pACYC plasmid); CD3254 was added in a 2-fold excess; also called RXR LBD
B1: binds [1].

B2: HsTIF-2 (632–772), TIF2 receptor interacting domain (RID) (domain or fragment, human, UniProt Q15596 632-772, looked up)
chain: LHDSKGQTKLLQLLTTKSDQMEPSPLASSLSDTNKDSTGSLPGSGSTHGTSLKEKHKILHRLLQDSSSPVDLAKLTAEATGKDLSQESSSTAPGSEVTIKQEPVSPKKKENALLRYLLDKDDTKDIGLPEITPKLERLDSK
notes: TIF2 (NCoA2, p160 member), human, residues 632-772: 15 kDa fragment with the three LXXLL motifs; also called TIF2 RID; TIF-2 RID
B2 was tested, and the “stoichiometry N” value [2] was 1 coactivator per receptor dimer, the “stoichiometry N” value [3] was 1 TIF2 RID per heterodimer and the “stoichiometry N” value [4] was 1 TIF2 RID per heterodimer.

B3: HsRXRαΔNTD (130–462) (domain or fragment, human, UniProt P19793 130-462, looked up)
chain: T4 sequence (looked up) 2
notes: Retinoid X receptor alpha without its N-terminal domain, human, residues 130-462; nontagged (pACYC plasmid); CD3254 was added in a 2-fold excess; also called RXRΔNTD
B3: binds [5]; binds [6].
